# Laboratory results taken from PMC9856709 (Cancers, 2023).
# Where two headings read alike, the source gives them in different places. Numbered stars: 1 amine (or outer) side, 2 acyl side, 3 side chain; on linkers, the order of the positions; unused ones are H or OH. Square brackets hold non-standard residues; d marks the D form. Peptide text beside a SMILES is read from it. * marks the point of attachment. NOTA = O=C(O)CN1CCN(CC(=O)O)CCN(CC(=O)*)CC1; γGlu = O=C(O)[C@H](CCC(=O)[*:2])N[*:1]; Sta = CC(C)C[C@H](N)[C@@H](O)CC(=O)O; AEEA = NCCOCCOCC(=O)O; Aoc = NCCCCCCCC(=O)O; CO = O=C([*:1])[*:2]
# Tests used:
# [1] = 37 °C, 1 h, ITLC
# Experimental: After 1 h, samples were taken from all solutions and analysed by ITLC.
# PSMA and GRPR [2] = experiment: In vitro binding specificity (blocking) in PC3-pip cells; assay type: cell-based, human; settings: 1 h 37 °C
# Experimental: In vitro experiments were carried out using the PSMA- and GRPR-expressing human prostate carcinoma PC3-pip cell line (obtained from Prof. Martin Pomper, The Johns Hopkins University, Baltimore, MD, USA). Cells (5–7 × 10^5 cells/vial) were seeded 24–48 h before the experiments. All experiments were performed in triplicate.
# To block the targets, cells were incubated at room temperature for 15 min with an excess (750 nM/well) of PSMA-11 (to block PSMA) and/or NOTA-PEG2-RM26 (to block GRPR). […] After 1 h, cells were collected, and the radioactive content was measured using an automated gamma counter.
# [3] = In vivo binding specificity (blocked groups) in PC3-pip xenografted mice; design: species or system BALB/c nu/nu mice; settings: BALB/c nu/nu, mouse, iv, total radioactivity, 1 h pi, 40 pmol iv, average ± SD
# Experimental: (§1) Ex vivo experiments and in vivo imaging were carried out using BALB/c nu/nu mice bearing PC3-pip xenografts. All studies were performed according to the guidelines of the Declaration of Helsinki and approved by the Ethics Committee for Animal Research in Uppsala, Sweden (5.8.18-00473/2021. Approved on 26 February 2021).
# (§2) There were 4 mice in each group. At 1 and 3 h pi, mice were sacrificed after an intraperitoneal injection of a Ketalar–Rompun solution (20 μL/g body weight) consisting of Ketalar (10 mg/mL) and Rompun (1 mg/mL), followed by heart puncture.
# PSMA and GRPR [4] = experiment: as above; design: species or system BALB/c nu/nu mice; settings: 1 h pi
# Experimental: as §1, §2
structure (smiles),measurement,setting,value
"CC(C)C[C@H](NC(=O)C[C@H](O)[C@H](CC(C)C)NC(=O)[C@H](Cc1c[nH]cn1)NC(=O)CNC(=O)[C@@H](NC(=O)[C@H](C)NC(=O)[C@H](Cc1c[nH]c2ccccc12)NC(=O)[C@H](CCC(N)=O)NC(=O)[C@@H](Cc1ccccc1)NC(=O)COCCOCCNC(=O)[C@H](CCCCNC(=O)CN1CCN(CC(=O)O)CCN(CC(=O)O)CC1)NC(=O)[C@H](Cc1ccccc1)NC(=O)CCCCCCCNC(=O)CC[C@H](NC(=O)N[C@@H](CCC(=O)O)C(=O)O)C(=O)O)C(C)C)C(N)=O [[^68Ga]Ga-BQ7812, metal not drawn] ({Glu-CO-γGlu-Aoc}-FK(NOTA)[AEEA][dF]QWAVGH[Sta]L-NH2)",Release of free gallium-68 in human serum,[1],no release of free gallium-68 was detected
same,Stability in human serum,[1],stable
same,Uptake in cells pre-saturated with both blocking agents compared to either one,PSMA and GRPR [2]; 20 nM tracer,significantly lower
same,Activity uptake after pre-saturation of GRPR compared to naive cells,"PSMA and GRPR [2]; excess NOTA-PEG2-RM26, 20 nM tracer, triplicate, p < 0.05",significant decrease
same,Activity uptake after pre-saturation of PSMA compared to naive cells,"PSMA and GRPR [2]; excess PSMA-11, 20 nM tracer, triplicate, p < 0.05",significant decrease
same,Activity uptake after pre-saturation of PSMA and GRPR compared to naive cells,"PSMA and GRPR [2]; excess PSMA-11 and NOTA-PEG2-RM26, 20 nM tracer, triplicate, p < 0.05",significant decrease
same,tissue uptake at 1 h,"[3]; blood, GRPR blocked (co-injected NOTA-PEG2-RM26 5 nmol), read-out: Uptake (%IA/g), Blood",0.69 ± 0.28 %ID/g
same,tissue uptake at 1 h,"[3]; blood, PSMA blocked (co-injected PSMA-11 5 nmol), read-out: Uptake (%IA/g), Blood",0.8 ± 0.24 %ID/g
same,tissue uptake at 1 h,"[3]; kidneys, GRPR blocked (co-injected NOTA-PEG2-RM26 5 nmol), read-out: Uptake (%IA/g), Kidneys",34.5 ± 8.74 %ID/g
same,tissue uptake at 1 h,"[3]; kidneys, PSMA blocked (co-injected PSMA-11 5 nmol), read-out: Uptake (%IA/g), Kidneys",13.8 ± 0.45 %ID/g
same,tissue uptake at 1 h,"[3]; pancreas, GRPR blocked (co-injected NOTA-PEG2-RM26 5 nmol), read-out: Uptake (%IA/g), Pancreas",0.76 ± 0.14 %ID/g
same,tissue uptake at 1 h,"[3]; pancreas, PSMA blocked (co-injected PSMA-11 5 nmol), read-out: Uptake (%IA/g), Pancreas",6.33 ± 1.86 %ID/g
same,tissue uptake at 1 h,"[3]; salivary glands, GRPR blocked (co-injected NOTA-PEG2-RM26 5 nmol), read-out: Uptake (%IA/g), Salivary Glands",0.29 ± 0.07 %ID/g
same,tissue uptake at 1 h,"[3]; salivary glands, PSMA blocked (co-injected PSMA-11 5 nmol), read-out: Uptake (%IA/g), Salivary Glands",0.38 ± 0.12 %ID/g
same,tissue uptake at 1 h,"[3]; tumour (PC3-pip xenograft), GRPR blocked (co-injected NOTA-PEG2-RM26 5 nmol), read-out: Uptake (%IA/g), Tumour (PC3-pip)",5.73 ± 0.72 %ID/g
same,tissue uptake at 1 h,"[3]; tumour (PC3-pip xenograft), PSMA blocked (co-injected PSMA-11 5 nmol), read-out: Uptake (%IA/g), Tumour (PC3-pip)",8.26 ± 1.03 %ID/g
same,"Uptake in tumour and pancreas, GRPR-blocked group compared with non-blocked group",PSMA and GRPR [4]; co-injected NOTA-PEG2-RM26 5 nmol,statistically significantly lower
same,"Uptake in tumour and kidneys, PSMA-blocked group compared with non-blocked group",PSMA and GRPR [4]; co-injected PSMA-11 5 nmol,statistically significantly lower
